Fewer inactive variants are shown than the library holds.
Key:
biotinyl-Met-oxazolone = assay: self-aminoacylation, catalytic enhancement (BMO) (fold over background); higher = more active; k-Seq, kA / k0A0; sequences stand for … in GGGAAUGGAUCCACAUCUACGAAUUC…UUCACUGCAGACUUGACGAAGCUG
Method in brief: (§1)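 Catalytic enhancement equals the median kA over the uncatalyzed rate, the latter read from the low-activity peak of a bimodal Gaussian fit. Values of kA came from fitting each sequence's fraction reacted to a pseudo-first-order model, with 1000 bootstraps. Reacted RNA was captured with streptavidin and quantified by triplicate qPCR and Illumina sequencing after 90 minutes at room temperature with 2–1250 μM biotinyl-aminoacyl-oxazolone and 0.43 μM mutagenized RNA pools bearing a 21-nt variable region.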

biotinyl-Trp-oxazolone = assay: self-aminoacylation, catalytic enhancement (BWO) (fold over background); higher = more active; k-Seq, kA / k0A0; sequences stand for … in GGGAAUGGAUCCACAUCUACGAAUUC…UUCACUGCAGACUUGACGAAGCUG
Method in brief: as §1

biotinyl-Ile-oxazolone = assay: self-aminoacylation, catalytic enhancement (BIO) (fold over background); higher = more active; k-Seq, kA / k0A0; sequences stand for … in GGGAAUGGAUCCACAUCUACGAAUUC…UUCACUGCAGACUUGACGAAGCUG
Method in brief: as §1

biotinyl-Phe-oxazolone = assay: self-aminoacylation, catalytic enhancement (BFO) (fold over background); higher = more active; k-Seq, kA / k0A0; sequences stand for … in GGGAAUGGAUCCACAUCUACGAAUUC…UUCACUGCAGACUUGACGAAGCUG
Method in brief: as §1

biotinyl-Val-oxazolone = assay: self-aminoacylation, catalytic enhancement (BVO) (fold over background); higher = more active; k-Seq, kA / k0A0; sequences stand for … in GGGAAUGGAUCCACAUCUACGAAUUC…UUCACUGCAGACUUGACGAAGCUG
Method in brief: as §1

biotinyl-Leu-oxazolone = assay: self-aminoacylation, catalytic enhancement (BLO) (fold over background); higher = more active; k-Seq, kA / k0A0; sequences stand for … in GGGAAUGGAUCCACAUCUACGAAUUC…UUCACUGCAGACUUGACGAAGCUG
Method in brief: as §1

Sequence	self-aminoacylation (biotinyl-Met-oxazolone)	self-aminoacylation (biotinyl-Trp-oxazolone)	self-aminoacylation (biotinyl-Ile-oxazolone)	self-aminoacylation (biotinyl-Phe-oxazolone)	self-aminoacylation (biotinyl-Val-oxazolone)	self-aminoacylation (biotinyl-Leu-oxazolone)
CCACACUUCAAGCGCUCGGUC [Fam1B.1 aminoacylation ribozyme variant]	0.81	1.41	1.04	3.37	1.09	1.21
CCACGCUUCAAGCAUUCGGUC [Fam1B.1 aminoacylation ribozyme variant]	1.06	1.31	1.24	0.774	1.93	1.11
AUUACCCUGGUAAUCGCGUGA [Fam2.1 aminoacylation ribozyme variant]	7.29	7.81	3.14	58.9	3.66	8.44
AAGUUUGCUAAUAGUGGAAAG [Fam3.1 aminoacylation ribozyme variant]	1.2	0.946	1.21	0.794	0.944	0.876
CCACACUUCACGCAAUCGGGC [Fam1B.1 aminoacylation ribozyme variant]	2.18	2.1	2.42	20	3.33	2.39
UUACUUCAAACUAUCGGUCUG [Fam1A.1 aminoacylation ribozyme variant]	0.916	1.26	1.25	1.25	1.08	1.04
CUACUUCAAACAAGCGGUCUG [Fam1A.1 aminoacylation ribozyme variant]	0.822	0.693	0.933	0.819	0.871	0.825
AUUACCAUGGUAAUCGAGUGA [Fam2.1 aminoacylation ribozyme variant]	8.72	10.7	3.78	50.3	3.89	8.44
CUACCUCAAACAAUCGGUCUC [Fam1A.1 aminoacylation ribozyme variant]	0.879	1.42	0.869	2.7	1.07	0.752
CUAGACUUCAAGCAAUCGGUC [Fam1B.1 aminoacylation ribozyme variant]	1.05	16.2	0.981	34.1	0.979	1.37
AGUCACCUAGGUCAUCGGUUG [Fam2.2 aminoacylation ribozyme variant]	1.99	1.82	1.83	10.1	1.71	2.12
AUUACCCGGCUCAUCGAGUGA [Fam2.1 aminoacylation ribozyme variant]	1.72	1.61	1.79	0.746	1.72	1.71
GCAGACUUCAAGCAAUCGGUC [Fam1B.1 aminoacylation ribozyme variant]	2.82	49.8	3.19	119	2.67	4.28
AUUCACCUAGGUGAUCGGGCG [Fam2.2 aminoacylation ribozyme variant]	3.9	3.84	3.28	12.5	3.62	4.11
AUUCACCUAGGCGAUCGGGUG [Fam2.2 aminoacylation ribozyme variant]	3.5	3.78	2.88	20.4	3.52	4.89
AAUCACCUUGGUCAUCGGGUG [Fam2.2 aminoacylation ribozyme variant]	6.06	8.74	4.22	43.2	5.18	6.76
AUAACCCUGGUCAUCGAGUGG [Fam2.1 aminoacylation ribozyme variant]	8.46	6.21	3.4	20.8	3.38	7.76
CGACGCUUCAAGCAAUCGGUC [Fam1B.1 aminoacylation ribozyme variant]	1.07	16.7	1.2	22.7	1.35	1.58
AACUUUGCUAAUAGUCGCUAG [Fam3.1 aminoacylation ribozyme variant]	2.22	1.84	2.28	2.6	1.64	2.78
CUACAUCAAACGAUCGGUCUG [Fam1A.1 aminoacylation ribozyme variant]	0.657	0.778	0.728	0.836	0.93	0.78
AUUGCCCAGGUCAUCGAGUGA [Fam2.1 aminoacylation ribozyme variant]	5.51	5.7	2.66	18.4	3.16	4.81
AUUCACCUAGGGCUUCGGGUG [Fam2.2 aminoacylation ribozyme variant]	3.39	3.63	2.69	15.1	2.92	2.82
CCACACUUCAAGCAACUGGUC [Fam1B.1 aminoacylation ribozyme variant]	0.52	0.338	0.57	0.699	0.616	0.505
ACACACUUUAAGCAAUCGGUC [Fam1B.1 aminoacylation ribozyme variant]	0.832	1.03	1.06	1.34	0.949	0.948
CCACACUUGAAGCAAUGGGUC [Fam1B.1 aminoacylation ribozyme variant]	0.696	0.833	0.99	1.26	0.811	0.739
CUACUGGAAACAAUCGGUCUG [Fam1A.1 aminoacylation ribozyme variant]	0.933	0.514	0.887	0.507	0.837	0.885

Sequence	self-aminoacylation (biotinyl-Met-oxazolone)	self-aminoacylation (biotinyl-Trp-oxazolone)	self-aminoacylation (biotinyl-Ile-oxazolone)	self-aminoacylation (biotinyl-Phe-oxazolone)	self-aminoacylation (biotinyl-Val-oxazolone)	self-aminoacylation (biotinyl-Leu-oxazolone)
AUCACCCUGGUAAUCGAGUGA [Fam2.1 aminoacylation ribozyme variant]	11.2	13.6	4.92	95.4	4.82	11.3
CCACUUCAAACAAUCGGUCUG [Fam1A.1 aminoacylation ribozyme variant]	1.76	49.3	1.51	114	1.63	2.75
CUACUUCAAGCAAGCGGUCUG [Fam1A.1 aminoacylation ribozyme variant]	0.867	0.849	1.12	0.897	0.854	0.958
AUUACGCUGGUCAUCGCGUGA [Fam2.1 aminoacylation ribozyme variant]	12.2	15.4	7.32	134	9.87	11.7
GCAUACUUCAAGCAAUCGGUC [Fam1B.1 aminoacylation ribozyme variant]	2.03	18	2.35	19.8	2.01	2.19
AUGACCCUGGUCUUCGAGUGA [Fam2.1 aminoacylation ribozyme variant]	5.04	6.19	2.9	30.4	2.95	6.24
CUACUUCAAGCAAUGGGUCUG [Fam1A.1 aminoacylation ribozyme variant]	0.934	1.09	1.02	0.863	0.998	0.852
CCACACCCCAAGCAAUCGGUC [Fam1B.1 aminoacylation ribozyme variant]	0.627	0.888	1.6	1.04	1.37	1.04
AAGUUUCCUAAUAGUGGCAAG [Fam3.1 aminoacylation ribozyme variant]	0.752	0.634	0.838	0.605	0.902	0.642
AAGUUUGCAAAUAGUCGCAAC [Fam3.1 aminoacylation ribozyme variant]	1.07	1.01	0.917	0.731	0.838	1.01
AUUACCCCGGUCUUCGAGUGA [Fam2.1 aminoacylation ribozyme variant]	4.71	6.46	3.2	29.3	3.4	4.72
AUUACCCUGGUCUUCGAGGGA [Fam2.1 aminoacylation ribozyme variant]	1.15	1.31	1.5	0.74	1.35	1.54
CCACAGCUCAAGCAAUCGGUC [Fam1B.1 aminoacylation ribozyme variant]	1.05	2.35	1.18	3.21	1.29	1.16
CCACGCUUCACGCAAUCGGUC [Fam1B.1 aminoacylation ribozyme variant]	1.4	1.95	1.15	0.964	1.82	1.09
CUACUUCGAUCAAUCGGUCUG [Fam1A.1 aminoacylation ribozyme variant]	0.528	0.434	0.591	0.778	0.584	0.585
AUUCACCUAGAUCAUCGGCUG [Fam2.2 aminoacylation ribozyme variant]	1.56	1.63	1.69	0.62	1.89	1.81
AUACACCUAGGUCAUUGGGUG [Fam2.2 aminoacylation ribozyme variant]	2.36	3.17	2.02	13.3	2.24	2.14
UCACACUUCAAGCAAUAGGUC [Fam1B.1 aminoacylation ribozyme variant]	0.434	0.559	0.671	0.918	0.668	0.495
AUUACCCUUGUCUUCGAGUGA [Fam2.1 aminoacylation ribozyme variant]	4.46	6.14	2.64	18.9	2.73	4.49
AAUACCCUGGUCACCGAGUGA [Fam2.1 aminoacylation ribozyme variant]	6.98	6.81	4.13	39.1	3.33	6.58
AGUCUCCUAGGUCAUCGGGUG [Fam2.2 aminoacylation ribozyme variant]	9.95	9.36	5.63	58.7	6.91	12.9
ACUACCCUGGUCAUCGAGUGC [Fam2.1 aminoacylation ribozyme variant]	5.55	4.17	2.18	10.1	2.44	5.6
CUACUUCAAACAGUCGGUCUC [Fam1A.1 aminoacylation ribozyme variant]	0.765	0.456	0.903	0.732	0.8	1.02
AUUACACUGGUCAACGAGUGA [Fam2.1 aminoacylation ribozyme variant]	5.3	7.54	2.78	22.6	2.79	5.07
AUUCACAUAGGUCAUCGGGUU [Fam2.2 aminoacylation ribozyme variant]	2.13	1.97	1.9	8.48	1.76	2.22

Source: the supplement of paper PMC9233669
